# Reference: article PMC3267895
# Like-named read-outs stand apart in the source and are kept apart here.
# Key:
# NPH-II [1] = target: T1, NPH-II (vaccinia virus, UniProt P12927 1-676); assay: smFRET
# NPH-II [2] = target: T1, NPH-II; assay: smFRET; remark: listed apart in the source
# NPH-II [3] = target: T1, NPH-II; assay: smFRET; remark: listed apart in the source
# NPH-II [4] = target: T1, NPH-II; assay: sucrose gradient centrifugation
# NPH-II [5] = target: T1, NPH-II; assay: sucrose gradient centrifugation; remark: listed apart in the source
# NPH-II [6] = target: T1, NPH-II; assay: sucrose gradient centrifugation; remark: listed apart in the source
binder,measurement,setting,value
"smFRET bipartite RNA with two extra 3' U on complementary strand (dsRNA, 3' biotin on strand 2) RNA 1: AGCACCGUAAAGACGCAGCCAGCAUCAAUGACAUCAGCAUCAA RNA 2: GCUGCGUCUUUACGGUGCUUU",Kd,NPH-II [1],910 ± 120 pM
same,Kd,NPH-II [2],20800 ± 7500 pM
same,Kd,NPH-II [3],< 10 pM
"bipartite RNA, 19 bp duplex with 24 nt 3' overhang (dsRNA) RNA 1: AGCACCGUAAAGACGCAGCCAGCAUCAAUGACAUCAGCAUCAA RNA 2: GCUGCGUCUUUACGGUGCU",binding result,NPH-II [4],binds
blunt-end duplex RNA 19 bp (dsRNA) RNA 1: AGCACCGUAAAGACGCAGC RNA 2: GCUGCGUCUUUACGGUGCU,binding result,NPH-II [5],binds
CAGCAUCAAUGACAUCAGCAUCAA (ssRNA) [single-stranded RNA 24 nt (overhang)],binding result,NPH-II [6],binds
